# Experimental data published in publication PMC12554172, “Systematic analysis of the RGS2 degron reveals characteristics of substrate recognition by the F-box protein FBXO44” (The Journal of Biological Chemistry, 2025).
# Target: RGS2^5–16 peptide (RGS2 degron, Met^5–Met^16)
# Assay: SPR; Biacore X100; RGS2^5–16 peptide amine-coupled to a CM5 chip (2498 RU), blank reference cell; FBXO44^FBA as analyte, 0.29 to 75 μM, contact time 60 s, regeneration 50 mM NaOH; RU at equilibrium, nonlinear fit of saturation binding; SEC/SPR buffer 20 mM Tris–HCl pH 7.2, 200 mM NaCl
binder,measurement,value
FLAG-tagged FBXO44 FBA domain (FBXO44^FBA) (domain or fragment) FYFLRSLHRNLLHNPCAEEGFEFWSLDVNGGDEWKVEDLSRDQRKEFPNDQVKKYFVTSYYTCLKSQVVDLKAEGYWEELMDTTRPDIEVKDWFAARPDCGSKYQLCVQLLSSAHAPLGTFQPDPATIQQKSDAKWREVSHTFSNYPPGVRYIWFQHGGVDTHYWAGWYGPRVTNSSITIGP,Kd,2100 nM
